The values below are quoted from earlier work in paper PMC12524998.

For the data set, the target named is dysferlin (Homo sapiens) (UniProt O75923). The experiment in a line: SPR. For orientation: SPR reads the build-up and loss of mass on a sensor chip optically.
UniProt O75923, sequence (O75923 whole entry): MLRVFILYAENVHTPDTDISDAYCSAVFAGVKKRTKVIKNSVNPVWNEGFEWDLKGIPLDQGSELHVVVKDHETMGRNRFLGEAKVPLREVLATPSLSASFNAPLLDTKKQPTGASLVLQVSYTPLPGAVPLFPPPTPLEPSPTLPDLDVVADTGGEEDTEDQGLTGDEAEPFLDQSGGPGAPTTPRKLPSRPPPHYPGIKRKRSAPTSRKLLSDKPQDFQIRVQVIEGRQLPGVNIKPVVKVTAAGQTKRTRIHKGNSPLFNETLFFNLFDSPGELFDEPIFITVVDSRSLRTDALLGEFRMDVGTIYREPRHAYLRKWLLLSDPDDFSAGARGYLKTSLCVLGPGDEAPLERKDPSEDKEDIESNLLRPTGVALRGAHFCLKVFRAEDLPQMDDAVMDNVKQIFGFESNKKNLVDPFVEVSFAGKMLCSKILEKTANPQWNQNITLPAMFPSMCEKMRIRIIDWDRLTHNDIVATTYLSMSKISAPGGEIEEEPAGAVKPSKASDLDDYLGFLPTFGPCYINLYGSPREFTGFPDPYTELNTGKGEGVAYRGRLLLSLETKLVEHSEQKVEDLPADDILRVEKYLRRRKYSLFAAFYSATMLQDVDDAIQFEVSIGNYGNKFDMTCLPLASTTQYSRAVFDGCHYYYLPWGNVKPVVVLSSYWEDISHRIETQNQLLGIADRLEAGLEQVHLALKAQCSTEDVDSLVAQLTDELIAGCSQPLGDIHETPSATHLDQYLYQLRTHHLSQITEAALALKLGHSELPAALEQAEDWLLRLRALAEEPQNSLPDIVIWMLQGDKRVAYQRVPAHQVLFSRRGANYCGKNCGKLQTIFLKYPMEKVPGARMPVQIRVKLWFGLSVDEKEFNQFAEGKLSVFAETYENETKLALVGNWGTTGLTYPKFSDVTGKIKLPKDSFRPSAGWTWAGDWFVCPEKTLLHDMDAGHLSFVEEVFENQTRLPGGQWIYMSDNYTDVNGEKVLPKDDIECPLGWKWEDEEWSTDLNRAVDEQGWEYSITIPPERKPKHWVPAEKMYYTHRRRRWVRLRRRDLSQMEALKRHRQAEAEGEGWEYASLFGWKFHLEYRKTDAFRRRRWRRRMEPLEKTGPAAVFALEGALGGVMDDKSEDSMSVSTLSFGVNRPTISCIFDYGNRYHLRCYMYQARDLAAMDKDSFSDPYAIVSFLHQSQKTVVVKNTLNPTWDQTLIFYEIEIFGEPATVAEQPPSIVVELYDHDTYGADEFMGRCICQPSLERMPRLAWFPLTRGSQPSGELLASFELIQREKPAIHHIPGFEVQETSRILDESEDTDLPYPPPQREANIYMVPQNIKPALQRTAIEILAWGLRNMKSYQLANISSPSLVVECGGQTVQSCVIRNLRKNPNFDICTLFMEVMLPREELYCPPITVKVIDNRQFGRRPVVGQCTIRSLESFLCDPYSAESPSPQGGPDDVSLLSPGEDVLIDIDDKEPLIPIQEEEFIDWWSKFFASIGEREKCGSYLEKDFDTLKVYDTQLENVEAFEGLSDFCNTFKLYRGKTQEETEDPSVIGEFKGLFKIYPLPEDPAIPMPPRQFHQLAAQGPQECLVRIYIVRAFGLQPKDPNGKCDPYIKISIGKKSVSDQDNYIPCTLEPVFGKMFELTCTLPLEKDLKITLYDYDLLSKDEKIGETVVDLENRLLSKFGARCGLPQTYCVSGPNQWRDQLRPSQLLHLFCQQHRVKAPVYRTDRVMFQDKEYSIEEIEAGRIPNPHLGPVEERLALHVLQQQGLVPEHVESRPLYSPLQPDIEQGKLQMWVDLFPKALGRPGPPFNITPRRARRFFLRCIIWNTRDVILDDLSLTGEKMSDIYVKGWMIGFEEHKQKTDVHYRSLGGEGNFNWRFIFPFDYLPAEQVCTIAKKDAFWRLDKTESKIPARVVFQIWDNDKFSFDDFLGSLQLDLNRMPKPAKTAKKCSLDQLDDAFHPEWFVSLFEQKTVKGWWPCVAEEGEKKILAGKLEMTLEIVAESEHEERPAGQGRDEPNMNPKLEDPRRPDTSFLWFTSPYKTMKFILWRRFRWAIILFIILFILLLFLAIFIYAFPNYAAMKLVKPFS

For FKBP8 (from UniProt Q14318), the dissociation constant Kd – broadly, the constant that tells how readily two partners part at equilibrium – was 24 nM.
